The values below come from patent US20100021987.

Data set [1] deals with 6xHis-AtSUMO1-eGFP.
Data set [2] has as its system 6xHis-AtSUMO2-eGFP.
Data set [3] relates to 6xHis-T-SUMO-eGFP.
For data set [4], the system named is 6xHis-hSUMO-1-eGFP.
In data set [5] the test system is 6xHis-hSUMO-3-eGFP.
Data set [6] concerns 6xHis-ySmt3-eGFP.

Take “GST fusion of the catalytic domain of the Xanthomonas campestris pathovar vesicatoria protease XopD (GST-XopD)”: the “activity level (grade)” value in data set [1] is reported as “-”; in data set [2], “+/-”; in data set [3] it was “+/-”; in data set [4], “-”; in data set [5], “-”; in data set [6], “+/-”.
